In patent publication US20260209316A1 (US Dept. of Health and Human Services, published 2026):
Like-named read-outs stand apart in the source and are kept apart here.

What was measured:
[1] = target: T1, mucin domain-deleted Sudan GP (GPdMuc) (Sudan virus (SUDV), UniProt Q7T9D9 33-632); experiment: ELISA on coated GP
T1 construct: also called Sudan GPdMuc; GP(S)dMuc

[2] = target: T1, mucin domain-deleted Sudan GP (GPdMuc); experiment: BLI competition on Sudan GPdMuc (upper table); competitor 16F6
[3] = target: T1, mucin domain-deleted Sudan GP (GPdMuc); experiment: BLI competition on Sudan GPdMuc (upper table); competitor 316L
[4] = target: T1, mucin domain-deleted Sudan GP (GPdMuc); experiment: BLI competition on Sudan GPdMuc (upper table); competitor 15H10
[5] = target: T1, mucin domain-deleted Sudan GP (GPdMuc); experiment: BLI competition on Sudan GPdMuc (upper table); competitor mAb166
[6] = target: T2, mucin domain-deleted Zaire GP (GPdMuc) (Ebola (Zaire) virus (EBOV), UniProt Q05320 33-632); experiment: BLI competition on Zaire GPdMuc (upper table); competitor 316L
[7] = target: T2, mucin domain-deleted Zaire GP (GPdMuc); experiment: BLI competition on Zaire GPdMuc (upper table); competitor 380L
[8] = target: T2, mucin domain-deleted Zaire GP (GPdMuc); experiment: BLI competition on Zaire GPdMuc (upper table); competitor KZ52
[9] = target: T2, mucin domain-deleted Zaire GP (GPdMuc); experiment: BLI competition on Zaire GPdMuc (upper table); competitor 15H10
[10] = target: T2, mucin domain-deleted Zaire GP (GPdMuc); experiment: BLI competition on Zaire GPdMuc (upper table); competitor mAb114
[11] = target: T1, mucin domain-deleted Sudan GP (GPdMuc); experiment: ELISA on coated GP; remark: listed apart in the source
[12] = target: T3, mucin domain-deleted Zaire GP (GPdMuc) (Ebola (Zaire) virus (EBOV), UniProt Q05320 33-632); experiment: ELISA on coated GP
T3 construct: also called Zaire GPdMuc; GP(Z)dMuc

[13] = target: T3, mucin domain-deleted Zaire GP (GPdMuc); experiment: BLI competition on Zaire GPdMuc (upper table); competitor 13C6
[14] = target: T3, mucin domain-deleted Zaire GP (GPdMuc); experiment: BLI competition on Zaire GPdMuc (upper table); competitor 380L
[15] = target: T3, mucin domain-deleted Zaire GP (GPdMuc); experiment: BLI competition on Zaire GPdMuc (upper table); competitor KZ52
[16] = target: T1, mucin domain-deleted Sudan GP (GPdMuc); experiment: BLI competition on Sudan GPdMuc (lower table); competitor 15H10
[17] = target: T3, mucin domain-deleted Zaire GP (GPdMuc); experiment: BLI competition on Zaire GPdMuc (upper table); competitor 15H10
[18] = target: T1, mucin domain-deleted Sudan GP (GPdMuc); experiment: BLI competition on Sudan GPdMuc (lower table); competitor mAb166
[19] = target: T3, mucin domain-deleted Zaire GP (GPdMuc); experiment: BLI competition on Zaire GPdMuc (upper table); competitor mAb114
[20] = target: T4, mucin domain-deleted Sudan GP (GPdMuc) (Sudan virus (SUDV), UniProt Q7T9D9 33-632); experiment: ELISA on coated GP
[21] = target: T4, mucin domain-deleted Sudan GP (GPdMuc); experiment: ELISA on coated GP; remark: listed apart in the source
[22] = target: T4, mucin domain-deleted Sudan GP (GPdMuc); experiment: BLI competition on Sudan GPdMuc (lower table); competitor 15H10
[23] = target: T4, mucin domain-deleted Sudan GP (GPdMuc); experiment: BLI competition on Sudan GPdMuc (lower table); competitor mAb166
[24] = target: T1, mucin domain-deleted Sudan GP (GPdMuc); experiment: ELISA on coated GP; remark: listed apart in the source
[25] = target: T3, mucin domain-deleted Zaire GP (GPdMuc); experiment: BLI competition on Zaire GPdMuc (upper table); competitor 316L
[26] = target: T1, mucin domain-deleted Sudan GP (GPdMuc); experiment: BLI competition on Sudan GPdMuc (lower table); competitor 16F6
[27] = target: T1, mucin domain-deleted Sudan GP (GPdMuc); experiment: BLI competition on Sudan GPdMuc (lower table); competitor 316L
[28] = target: T1, mucin domain-deleted Sudan GP (GPdMuc); experiment: BLI competition on Sudan GPdMuc (lower table); competitor 15H10; remark: listed apart in the source
[29] = target: T1, mucin domain-deleted Sudan GP (GPdMuc); experiment: BLI competition on Sudan GPdMuc (lower table); competitor mAb166; remark: listed apart in the source

B1: antibody 523S (antibody, V domains shown)
VH: QVQLVQSGAELKKPGASVKVSCKASGYTFSDHYVHWVRQAPGQGLEWMGRINPNSGGTNYAQRFLGRVTMTRDASISTAYLDLSSLRSDDTAVYYCARSSSSWSGHYYYYMDVWGKGTTVTVSS
VL: QSVLTQPPSVSAAPGQRVTISCSGSTSNIASNFVSWYQQLPGTAPKLLIYDNHKRPSGIPDRFSGSKSGTSATLGITGLQTGDEADYYCGTWDSSLSAGVFGGGTKVTVLG
- EC50 [1]: 0.378 µg/mL
- % inhibition of binding [2]: 90.8%
- % inhibition of binding [3]: 9.35%
- % inhibition of binding [4]: 17.4%
- % inhibition of binding [5]: 5.74%

B2: antibody 13C6 (antibody, V domains shown)
VH: QLTLKESGPGILKPSQTLSLTCSLSGFSLSTSGVGVGWFRQPSGKGLEWLALIWWDDDKYYNPSLKSQLSISKDFSRNQVFLKISNVDIADTATYYCARRDPFGYDNAMGYWGQGTSVTVSS
VL: DIVMTQSQKFMSTSVGDRVSLTCKASQNVGTAVAWYQQKPGQSPKLLIYSASNRYTGVPDRFTGSGSGTDFTLTISNMQSEDLADYFCQQYSSYPLTFGAGTKLELR
- % inhibition of binding [6]: 95%
- % inhibition of binding [7]: 95%
- % inhibition of binding [8]: 16%
- % inhibition of binding [9]: 1%
- % inhibition of binding [10]: 97%

B3: antibody 541S (antibody, V domains shown)
VH: QVQLVQSGAEVKKPGASVKVSCKASGYTFTNYAITWVRQAPGQGLEWMGWISAFNGQINYAQKFQGRVAMTTDTSTSTAYMELRSLRSDDTAVYYCARAPPMWFSGAKFDYWGQGTLVTVSS
VL: QSVLTQPPSVSGTPGQRVTISCSGSSSNIGSNTVNWYQQLPGTAPKLLIYSNDQRPSGVPDRFSGSKSGTSASLAISGLRSEDEADYYCAAWDETLRRVFGGGTRLTVL
- EC50 [1]: 0.23 µg/mL
- % inhibition of binding [2]: 72.1%
- % inhibition of binding [3]: 16.2%
- % inhibition of binding [4]: 18.6%
- % inhibition of binding [5]: 15.7%

B4: antibody 316L (antibody, V domains shown)
VH: EERLVESGGGLVQPGGSLRLSCAASGFTFGDYAMHWVRQVPGKSLEWLSGISWSGYTTYSADSVKGRFTISRDNAKNSLYLQMNRLRPEDTGLYYCVTLIGAIGIKDSLDVWGRGVLVTVSS
VL: QSVLTQPPSVSGAPGQRVTVSCSGSSSNIGAGNYVQWYQQLPGTAPKVLIYQTEKRPSGTSDRFSGSKSDTSASLTINGLQSEDEADYYCQVYDSNLNGWVFGGGTRLTVLG
notes: also called 316L mAb; mAb 316L
- EC50 [11]: 0.0272 µg/mL
- EC50 [12]: 0.0124 µg/mL
- % inhibition of binding [13]: 98%
- % inhibition of binding [14]: 92%
- % inhibition of binding [15]: 13%
- % inhibition of binding [16]: 14.5%
- % inhibition of binding [17]: 26%
- % inhibition of binding [18]: 80%
- % inhibition of binding [19]: 100%

B5: antibody 16F6 (antibody, V domains shown)
VH: EVQLVESGGGLVTPGGSLKLSCAASGFAFNYYDMFWVRQNTEKRLEWVAYINSGGGNTYYPDTVKGRFTISRDNAKKTLFLQMSSLRSEDTAMYYCARQLYGNSFFDYWGQGTSLTVSA
VL: DIVMTQSHKFMSTSVGDRVTITCKASQDVTTAVAWYQQKPGHSPKLLIYWASTRHTGVPDRFTGSGSGTDFTLTLNSVQAEDLALYYCQQHYSTPLTFGAGTKLELK
- EC50 [20]: 0.0558 µg/mL
- EC50 [21]: 0.05 µg/mL
- % inhibition of binding [22]: 7.8%
- % inhibition of binding [23]: 0.2%

B6: antibody 545S (antibody, V domains shown)
VH: QVQLQESGPGLVKPSQTLSLTCTVSGGSISRAGSYWSWIRQHPGKGLEWIGYISYSGSTYYNPSLESRVTMSLDTSKSQFSLKLSSVTAADTAVYYCAREDRSGFYGLDVWGQGTTVTVSS
VL: QSVLTQPSSLSASPGATASLTCTLRSGINVDTYRIYWYQQKPGSPPQYLLRYKSDSDKHQGSGVPSRFSGSKDASANAGILLISGLQSADEADYYCMIWHSGAWVFGGGTKLTVQG
notes: also called 545S mAb
- EC50 [24]: 0.0233 µg/mL

B7: antibody 573S (antibody, V domains shown)
VH: EVQLVESGGGLVKPGGSLRLSCAASGFTFSSYTMNWVRQAPGKGLEWVSCIRSSSSDKYYADSVKGRFTISRDNTKNSLYLQMNSLRADDTAVYYCARDLGGANNRYYFDYGMDVWGQGTTVTVSS
VL: EIVMTQSPATLSVSPGGRATLSCRASQSVYTNLAWYQQKPGQAPRLLIYDASTRATGIPARFSGSGSGTEFTLTISSLQCEDFAVYYCQHYNNWPLYTFGQGTKLEIK
- EC50 [1]: 0.101 µg/mL
- % inhibition of binding [2]: 76.2%
- % inhibition of binding [3]: 6.38%
- % inhibition of binding [4]: 15.8%
- % inhibition of binding [5]: 8.08%

B8: antibody 380L (antibody, V domains shown)
VH: EVQLVESGGGLVQPGGSLTLSCAASGFTFGDYVMHWVRQVPGRGLEWLSAVSWSGYTTYSADSVKGRFTISRDNAKNSLYLQMSRLGTADTGLYYCVTLIGAIGIRDSFDAWGRGVLVTVSS
VL: QSVLTQPPSMSGAPGQRVTVSCTGSSSNIGAGNYVQWYQQLPGTAPKVLIYQTDKRPSGISDRFSGSKSGTSASLTISGLQSEDEADYYCQVYDSSLNGWVFGGGTRLTVL
notes: also called 380L mAb; mAb 380L
- EC50 [11]: 0.0238 µg/mL
- EC50 [12]: 0.012 µg/mL
- % inhibition of binding [13]: 97%
- % inhibition of binding [25]: 93%
- % inhibition of binding [15]: 13%
- % inhibition of binding [16]: 3.6%
- % inhibition of binding [17]: 24%
- % inhibition of binding [18]: 81.9%
- % inhibition of binding [19]: 100%

B9: antibody 354S (antibody, V domains shown)
VH: QVQLVQSGAEVKKPGASVKVSCKASGYSFASYYIHWVRQAPGQGLEWMGIINPSGGTTSYAQKFQGRVTMTRDTSTSTVYMELSSLGSEDTAVYYCARIVDRVTIYLNGVDNYWGQGTLVTVSS
VL: EIVMTQSPATLSVSPGERVTLSCRASQSVSSNLAWFQQTPGQAPRLLIYGASTRASGVPARFSGSGSGTEFTLTISSLQSEDFAVYYCLQYNNWPPGWKYGFGQGTKLEIK
- EC50 [1]: 0.0404 µg/mL
- % inhibition of binding [26]: 18.7%
- % inhibition of binding [27]: 17.9%
- % inhibition of binding [28]: 18.9%
- % inhibition of binding [29]: 16.2%

B10: antibody 291S (antibody, V domains shown)
VH: QVQLQESGPGLVKPSQTLSLTCTVSGGSFSSGFYWSWIRQRPGKGLEWVGYTYYSGSTYYNPSLQSRVTISVDTSKNQFSLNLSSVTAADTAVYHCARADYGGLFDYWGQGILVTVSS
VL: QSVLTQPSSLSASPGASASLTCTLRSGINVGTYRIFWYQQKPGSPPQFLLRYNSDSDKQQGSGVPSRFSGSKDASANAGILLISGLQSEDEADYYCMIWHTSAWVFGGGTKLTVL
- EC50 [24]: 0.0519 µg/mL
